The nature of this data set: yeast display, Sf9 membrane polyspecificity reagent, FACS + sequencing; frameworks hold sequencing errors. An outline of the steps:
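Nanobodies came from a synthetic yeast display library in Saccharomyces cerevisiae BJ5465, induced with galactose for 36–48 hours and stained for 1 hour at 4 °C with 10% biotinylated, detergent-solubilized Sf9 membrane reagent. Cells were enriched on streptavidin microbeads and then FACS-sorted, with low and high (top ~1%) gates set on anti-HA fluorescence for expression and streptavidin fluorescence for reagent binding. Each polyreactivity label reflects the gate a clone came from. Genes were amplified by colony PCR, sequenced by MiSeq 2 × 250 and filtered by CDR length.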
For “QVQLVESGAGIVQAGGSLRLSCAASGRTFNWYAMGLYTQPPGKERELVAAITYPGGTTYYADSVKGRFTISRDNAKNTVYLQMNSLKPEDTAVYYCAATFRYRRVTPTTRFNYWGQGTQVTVSS”, the “polyreactivity (PSR sort gate)” value was “high polyreactivity”. As for “QVQLVESGGGLVQAGGSLRLSCAASGFTFRNYAMGWYRQAPGKERELVAAISKRGGNTYYADSVKGRFTISRDNAKNTVYLQMNSLKPEDTAVYYCARKYFRTSNLYGYWGQGTQVTVSS”, the entry is “high polyreactivity”; as for “QVQLVESGGGLVQAGGSLRLSCAASGSTFSLYAMGWYRQAPGKERELVAAISSSGGSTYYADYVKGRFTISRDNAKNTVYLQMNSLKPEDTAVYYCAAYRVGSYDYWGQGTQVTVSS”, “high polyreactivity”. As for “QVQLQESGGGLVLAGGSLRLSCSASGNISVYGSMGWYRQSPGKEREFVATIDPGTNTNYADSVKDRFTISRDYAKNSVYLQMNSLKPEDTAVYYCAVEAGSDWPYRYWGQGTQVTVSS”, the entry is “low polyreactivity”; as for “QVQLVESGGGLVQAGRSLRLSCAASGSTFKVYAMGWYRQAPGKERELVAAISASDGSTYYPDSVKGRFTISRDNAKKTVYVQMYRLKPEDTAVYYFAAVLYSDKATYDYWGQGTQVTVSS”, “low polyreactivity”.

With “QVQLVESGGGLVQAGGSLRLSCAASGRTFYSYAKGWYRQAPGKERELVASITSTGSTYYADSVKGRFTISRDNAKNTVYLQMNSLKPEDTAVYYCAARRQPRYSQRSTYYYWGQGTQVTVSS”, the “polyreactivity (PSR sort gate)” value was “high polyreactivity”. Turning to “QVQLVESGGGLVQAGGSLRLSCAASGSTFGYNAMGWYRQAPGKERELVAAINFRSDRTFYADSVKGRFTISRDNAKNTVYLQMNSLKPEDTAVYYCAAKPTTYYGNSDYWGQGTQVTVSS”, the “polyreactivity (PSR sort gate)” value was “high polyreactivity”.

On to “QVQLVESGGGLVQAGGTLRLSCAASGFTFSSYTVGWYRQAPRKERELVASISSGGSTNYADSVKGRFTISRDNAKNTVYLQMNSLIPEDTAVFYCAAGTPCISFYDVCSGYDYWGQGTQVTVSS”, for which the “polyreactivity (PSR sort gate)” value was “low polyreactivity”.

Take “QFQLVESGGGLVQAGGSLRLSCAASGSIFANALGWYRQAPRKERELVAAISFSGGRTFYADSVKGRFTISRDNAKNTVYLQMNSLKPDDTTVYYCNKDYWGYFSYWKSYLYDYWGQGTQVTVSS”: the “polyreactivity (PSR sort gate)” value is recorded as “high polyreactivity”. Then “QVQLVESGGGLVQAGGSLRLSCAASGFTFKFNTMGWYRQAPGKERELVAAISWRGGDTSYADSVKGRFTISRDNAKNTVYLQMNSLKPEDTAVYYCAASPRYPYWYDYWGQGTQVTVSS”, with “low polyreactivity”; and “QVQLVESGGGLVQAGGSLRLSCAASGRTFNWYAMGWYRQAPGKEWELVAAISGGGGSTYYADSVKGRFTISRDNAKNTVYLQMNSLKPEDTAVYYCAADVEGWTVESDVYRVGYDYWGQGTQVTVSS”, with “low polyreactivity”; and “HVQLVESGGGLVQAGGSLRLSCAASGSTFTRNAMGWSRQAPGKEWELVAVISSRGGRTYYADSVKGRFTISRDNAKNTVDLQMNSLKPEATAVYYCAARYVIPLGNTYDYWGPGTQVTVSS”, with “high polyreactivity”.

“QVQLVESGGGLVQAGGSLRLSCAASGLTFVWYVMGWYRQAPGKERELVAAITSGGTTYYADSVKGRFTISRDNAKNTVYLQMNSLKPEDTAVYYCAAQWAGYGDLPWPYSVIVEFYYWGQGTQVTVSS”: the “polyreactivity (PSR sort gate)” value is recorded as “low polyreactivity”. Regarding “QVQLVESGGGLVQAGGSLRLSCAASGYTFPIYAMGWYRQAPGKEREVVATISSGGRTNYADSVKGRFTISRDNAKNTVYLQMNSLKPEDTAVYYCNARRLGWHALYLYDYWGQGTQVTVSS”, the “polyreactivity (PSR sort gate)” value is recorded as “high polyreactivity”. Then “QVQLQERGGGLVQAGGTLRLSCAASGSFSADEDMGWYRQAQGKEREFVAGISVGGNTNYADSVKGRFTISRENAKNTVYLQINSLKPEDTAVYYCAVLQDVYDALDYWAQGTQVTVSS”, with “high polyreactivity”.

As for “QDQLVDSGGVLVQAGGSLRLTCAASGSTFARNAMGWYRQAPGKERELVAAISSGGTTNYADSVKARFTISRDNAKNTVYLQMNSLKPEDTAVYYCNAGFRNVLTSGYLYDYWGQGTQVTVSS”, the “polyreactivity (PSR sort gate)” value is given as “low polyreactivity”. As for “QVQLVESGGGLVQAGGSHRLTCAASGRTFIFYAMGWYRPEPGKERELVAAITYSGTSTYYADSVKGRFTISRDNAKNTVYLQMNSLKPEDTAVYYCAKDGQRDANYYWGQGTQVTVSS”, the entry is “low polyreactivity”; as for “QVQLVESGGGLVQAGGSLRLTSAASGSTFLKYTMGWYRQAPGKERELVAGITYSGGSTSYADSVKGRFTISRDNAKNTVYFQMNSLKPEDTAVYYSAAARNTVYSYRGLFYWGQGTQVTLSS”, “high polyreactivity”. As for “QVQLVESGGGLVQAGGSLRLSCAASGITFSGNAMGWYRQAPGKERELVAAISGGGSTNYADSVKGRFTISRDNAKNTVYLQMNSLKPEDTAVYYCAAEIIFWYLYRDYYYWGQGTQVTVSS”, the entry is “low polyreactivity”; as for “QVQLVESGGGLVQAGGSLRLSCAASGSTFYYNGMGWYRQAPGKERELVAAITWTGDSTYYADSVKGRFTISRDNAKNTVYLQMNCLKPEDTAVYYCAAYYRKTGYDYWGQGTQVTVSS”, “high polyreactivity”.

For “QVLLVESGGGLVQAGGSLRLSCAASGFTFGTNAMVWYRQAPGKERELVAAISSRGGSTYYADSVKGRFTISRDNAKNTVYLLMNSLNPEDTAVYYCARRVARRQHEYGYWGQGTQVTVSS”, the “polyreactivity (PSR sort gate)” value is reported as “high polyreactivity”.

As for “QVQLVESGGGLVQAGGSLRLSCAASGRIFRAYVMGWYRQAPGKEREYVAAITRSGGSTYYADSVKGRFTISRDNAKNTVYLQMNSLKPEDTAVYYCAAPVYLYGTVGRGDYWGQGTQVTVSS”, the “polyreactivity (PSR sort gate)” value was “high polyreactivity”. Then “QVQLVESGGGLVQAGGSLRLSCAASGRTFQGYAMGWYRQAPGKERELVAAISRSGGRTYYADSVKGRFTISRDNAKNTVYLQMNSLKPEDTAVYYCAARRRWSQTPFDYWGQGTQVTVSS”, with “high polyreactivity”; and “QVQLVESGGGLVQAGGSLRLSCAASGIIFRYNAMGWYRQAPGKARELVAALSFRGGSTRYADSVKGRCTISRDTATNTVYLQMNSLKPEDTAVYYCNAQRRTYIYDYWGQGTQVTVSS”, with “high polyreactivity”. Then “QVQLVESGGGLVQAGGSLRLSCAASGSIFQGYAMGWYRQAPGKERELVAAITASGGSTYYADSVKGRFTISRDNAMNTVYLQMNSLKPEDTAVYYCAAVRKSVGVKYDFWGQGTQVTVSS”, with “high polyreactivity”; and “QVQLVESGGGLVQAGGSLRLSCAASGSTFYKYAMGWYRQAPGKERELVASISRSGGSTSYADSVKGRFTISRDYAKNTVYLQMNSLKPEDTAVYYCAATWRQHPGSMGYWGQGTQVTVSS”, with “high polyreactivity”; and “QVQLVESGGGLVQAGGSLRLSCAASGFTFLAYPMGRYRQAPGKERELVAAISKSGGSTYYADSVKGRFTISRDNAKITVYLQMNSLKPDDTAVYYSNAGRRIKFYGSYDYWGQGSQVTVSS”, with “high polyreactivity”. Turning to “QVQLVESGGGLVQAGGSLRLSCAASGRIYGTNAMGWYRQAPGKEMELVAAINGSDSSTYYADSVKGRFTISRDNAKNTVYLQINSLKPEDTAVYYCNADWSGAPERSTDGYDYWGQGTQVTVSS”, the “polyreactivity (PSR sort gate)” value is “low polyreactivity”. As for “QVQLVESGGGLVQAGGSLRLSCAASGGTFQDYGMGWYRQAPGKERELVAAITWSGGSTYYADSVKGRFTISRDNAKNTVYLQMNSLKPEDTAVYYCAAVYADVYLYLTAYDYWGQGTQVTVSS”, the entry is “low polyreactivity”. In the case of “QVQLVEKGGGLVQAGGSLRLSCAASGRTFRSNAMGWYRQAPGKERELVAAIRSRGGSTYYADSVKGRFTISRDNAKNTVYLQMNSLKPEDTAVYYCAAKHGSTSHDSWGQGTQVTVSS”, the “polyreactivity (PSR sort gate)” value is given as “high polyreactivity”. As for “QDQLVESGGGLVQAGGSLRLSCPASGFTFERNTMGWYRQAPGKERELVAVITRRGGNTNYADSVKGRFTISRDNAKNTVYLQMNSLKPEDTAVYYCAAYYSHYGTRYDYWGQGTQVTVSS”, the entry is “high polyreactivity”; as for “QVQLVESGGGLVQAGGSLRLSCAASGFAFSYYAMGWYRQAPGKEREFVASIDWSGGSTYYADSVKGRFTISRDNAKNTVFLQMNSLKPEDTAVYYCAAELDYFPGYDYWGQGTQVTVSS”, “low polyreactivity”; as for “QVQLVESGGGLVQAGGSLRLSCAASGPTYKYNAMGWYRQAPGKEREMVAAISSTGSTNYADSVKGRFTISRDNAKNTVYLQMNSLKPEDTAVYYCAASFYFVQWGWYYYWGQGTQVTVSS”, “low polyreactivity”. Then “QVQLVESGGGLVQAGGILRLSCAASGSIFYGNDMGWYRQEPGKEREFVAGISWSGGSTYYADSVKGRFTISRDNAKNTVYVQMNSLKPEETAVYYCAAVRWGSYTLSDDYWGQGTQVTVSS”, with “low polyreactivity”. Then “QVQLVESGGGLVQAGGSLRLSCAASGFTFSRNAMGWYRQAPGKERELVAAISGRTGTTYYADSVKGRFTISRDNAKNTVYLQMNSLKTVDTAVYYCAKSSGRYRSDYWGQGTQVTVSS”, with “high polyreactivity”; and “QVQLVESGGGLVQAGGSLRLSCAASGSTLIRNDMGWYRQAPAKERELVAAINTRGTTTYYADSVKGRFTISRDNAKNTVYLQMNSLKPEDTAVYYCAAYAYSAYSPDGQRSRYYYWGQGTQVTVSS”, with “high polyreactivity”. As for “QVQLEESGGGLVQAGGSLRLSCAASGSIFNRYAMGWYRQAPGKEWELVAAISRSGGRTYYADSVKGRFTISRDNAKNTVYLQMNSLKPEDTAVYYCAADKYYRQHEYDYLGQGTQVTVSS”, the “polyreactivity (PSR sort gate)” value is listed as “high polyreactivity”.

In the case of “QVQLVESGGGLVQAGGSLRLSCAPSGRTFQLYAMGWSRQAPGKERELVAGITITGGSTYYADSVKGRFTISRDNAKNTVYLLMNSLKPEDTAVYYCNKPRFSERYGMGYWGQGTQVTVSS”, the “polyreactivity (PSR sort gate)” value is reported as “low polyreactivity”. Then “QVQLVESGGGLVQAGGSLRLSCAASGSIFGFNALGWYRQAPGKERELVAAINNGGSTNYADSVKGRFTISRDNATNTVYLQMNSLKPEDTAVYYCAARLNYIRRGYWGQGTQVTVSS”, with “high polyreactivity”; and “QVQLVESGGRLVQAGGRLRLSSAATGLIFYANAMGWYRQAPGKQREFVADISNSGGSTYYADSVKGRFTISRDNAKNTVYLQMNSLKPEDTAVYYCNRVAYKRGYGVRYGGDYDYSGQGTQVTVSS”, with “low polyreactivity”; and “QVQLVESGGGLVQAGGSLRLSCAASGRIFNYYAMGWYRQAPGKARELVAAISGSGGRTYYADSVKGRFTISRDNAKNTVYLQMNSLKPEDTAVYYCAADGVDGYDYWGQGTQVTVSS”, with “high polyreactivity”.

Values taken from the nanobody polyreactivity screen of Harvey et al. (2022).
